Results: the supplement of paper PMC6757056
± gives the standard deviation of the averaged measurements.

B1: library; a variant is named by its letters at N, in order (parent)
chain: GCUGUCACCGGUGCUUGGUACGUUAUAUUCAGCCGGUCUGAUGAGUCUNNNNNNAGACGAAACAGC

What was measured:
(6R,S)-folinic acid [1] = variants of: B1; test: normalized RNA/DNA level without ligand (relative to sTRSVctl = 100) (log10 (% of sTRSVctl)); HEK293T overexpressing SLC46A1; higher = less ribozyme self-cleavage, higher mRNA level; conditions: without (6R,S)-folinic acid; ligand present: no
In short: (§1)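 HEK293T cells received ligand, where used, 1 h before being transfected with 4 µg per 6-well well of library plasmids encoding reporter-linked ribozyme switches. After 72 h, RNA was extracted with EDTA and sequenced. RNA level was derived from RNA reads per DNA read, normalized to a spiked-in non-cleaving sequence or the top sequences, then scaled and log-transformed. Values were ×100 then log10, the top set was 25 sequences, and the minimum was 100 DNA reads.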

(6R,S)-folinic acid [2] = variants of: B1; test: normalized RNA/DNA level with ligand (relative to sTRSVctl = 100) (log10 (% of sTRSVctl)); HEK293T overexpressing SLC46A1; ligand concentration (+) RNA-Seq: 6 mM; higher = less ribozyme self-cleavage, higher mRNA level; conditions: with (6R,S)-folinic acid; ligand present: yes
In short: as §1

Variant	normalized RNA/DNA level without ligand (log10) ((6R,S)-folinic acid [1])	normalized RNA/DNA level with ligand (log10) ((6R,S)-folinic acid [2])
AAUAGC	1.985 ± 0.013	2 ± 0.058
AAUUCA	1.9759 ± 0.00044	2 ± 0.041
AAUUCG	1.974 ± 0.012	2.03 ± 0.038
AAUUCC	2.059 ± 0.018	2.036 ± 0.019
AAUUCU	2.0312 ± 0.0016	2.03 ± 0.027
AAGUAU	1.959 ± 0.011	2.02 ± 0.03
AAGUAC	2.02 ± 0.024	2.03 ± 0.039
AAUACA	1.998 ± 0.014	1.995 ± 0.015
AAUACG	1.934 ± 0.0037	1.99 ± 0.056
UAUAGU	1.874 ± 0.014	1.97 ± 0.041
UAUAUU	1.9864 ± 0.0015	2.01 ± 0.042
UAUAUC	2.027 ± 0.0026	2.01 ± 0.036
UAUAUA	1.944 ± 0.0099	2 ± 0.034
UAGUAC	1.972 ± 0.002	2.01 ± 0.048
UAUCCC	2.047 ± 0.0027	2.01 ± 0.042
UAUCCA	1.979 ± 0.0079	2.001 ± 0.0084
UAUCCU	2.009 ± 0.0051	2 ± 0.048
CAGCUC	2.05 ± 0.023	2.035 ± 0.013
CAGCUU	1.987 ± 0.0035	2.01 ± 0.026

Variant	normalized RNA/DNA level without ligand (log10) ((6R,S)-folinic acid [1])	normalized RNA/DNA level with ligand (log10) ((6R,S)-folinic acid [2])
CAGCUA	2.02 ± 0.0022	2.04 ± 0.022
AAGUCA	1.969 ± 0.0021	1.98 ± 0.029
AAGUCU	2.066 ± 0.015	2.0681 ± 0.0013
AAGUCC	2 ± 0.023	2.01 ± 0.024
CAUGUA	1.947 ± 0.0027	1.99 ± 0.047
CAUGUC	2.03 ± 0.027	1.997 ± 0.0052
UAUAAC	1.98 ± 0.0056	2 ± 0.029
UAUACA	1.965 ± 0.003	2.01 ± 0.05
GAGGCC	2.041 ± 0.0098	2.044 ± 0.012
GAGGCG	2.003 ± 0.014	2.05 ± 0.055
GAGGCU	2.073 ± 0.0028	2.04 ± 0.022
CAUCGU	2.05 ± 0.021	2.02 ± 0.025
CAUCGG	1.99 ± 0.024	2.02 ± 0.026
CAUCGA	2.045 ± 0.0027	2.06 ± 0.026
GAGUUC	2.013 ± 0.02	2.025 ± 0.014
GAGUUA	2.008 ± 0.0034	2.03 ± 0.022
GAGUUU	2 ± 0.02	2.01 ± 0.037
CAUCAU	2.02 ± 0.052	2 ± 0.072
CAUCAG	1.97 ± 0.039	1.97 ± 0.021

Variant	normalized RNA/DNA level without ligand (log10) ((6R,S)-folinic acid [1])	normalized RNA/DNA level with ligand (log10) ((6R,S)-folinic acid [2])
CAUCAA	1.977 ± 0.0041	1.97 ± 0.021
CAUCAC	2.03 ± 0.0083	2 ± 0.071
UAUGUU	1.95 ± 0.022	2 ± 0.023
UAUGUA	1.8903 ± 0.0016	1.99 ± 0.057
UAUGUC	2.05 ± 0.033	2.01 ± 0.049
AAUGUA	1.9489 ± 1.8e-05	2.01 ± 0.04
AAUGUU	1.972 ± 0.0068	1.993 ± 0.0074
AAUGUG	1.81 ± 0.0053	1.999 ± 0.013
UAUGGU	1.8765 ± 0.0006	1.98 ± 0.026
UAGCGU	1.921 ± 0.0035	1.99 ± 0.048
UAGCGC	1.998 ± 0.018	2.005 ± 0.013
CAGUGA	1.979 ± 0.011	2.007 ± 0.02
CAGUGG	1.91 ± 0.023	2.005 ± 0.0026
CAGUGU	2.015 ± 0.02	2.03 ± 0.025
CAGUGC	2.011 ± 0.014	2 ± 0.026
GAGCUC	2.07 ± 0.011	2.05 ± 0.041
GAGCUU	2.051 ± 0.011	2.04 ± 0.064
GAGCUG	2.087 ± 0.0096	2.07 ± 0.051
AAUUAC	1.982 ± 0.0057	2.01 ± 0.026
